B1: 44-3ab (bispecific antibody, human IgG1, kappa, L234A L235A)
heavy 1: not shown
heavy 2: EVQLVESGGGLVQPGGSLRLSCAASGFSLSSSYWISWVRQAPGKGLEWIGSIDSGSVGITYYATWVKGRFTISRDNSKNTLYLQMNSLRAEDTAVYYCARHGDNWALDLWGQGTLVTVSSASTKGPSVFPLAPSSKSTSGGTAALGCLVKDYFPEPVTVSWNSGALTSGVHTFPAVLQSSGLYSLSSVVTVPSSSLGTQTYICNVNHKPSNTKVDKRVEPKSCGGGGSGGGGSEVQLVESGGGLVQPGGSLRLSCAASGFSLSSSYWISWVRQAPGKGLEWIGSIDSGSVGITYYATWVKGRFTISRDNSKNTLYLQMNSLRAEDTAVYYCARHGDNWALDLWGQGTLVTVSSASTKGPSVFPLAPSSKSTSGGTAALGCLVKDYFPEPVTVSWNSGALTSGVHTFPAVLQSSGLYSLSSVVTVPSSSLGTQTYICNVNHKPSNTKVDKRVEPKSCDKTHTCPPCPAPEAAGGPSVFLFPPKPKDTLMISRTPEVTCVVVDVSHEDPEVKFNWYVDGVEVHNAKTKPREEQYNSTYRVVSVLTVLHQDWLNGKEYKCKVSNKALPAPIEKTISKAKGQPREPQVCTLPPSREEMTKNQVSLSCAVKGFYPSDIAVEWESNGQPENNYKTTPPVLDSDGSFFLVSKLTVDKSRWQQGNVFSCSVMHEALHNHYTQKSLSLSPG
light 1: DIVMTQSPDSLAVSLGERATINCKSSQSLLNSRTRKNYLAWYQQKPGQPPKLLIYWASTRQSGVPDRFSGSGSGTDFTLTISSLQAEDVAVYYCTQSHTLRTFGGGTKVEIKPDIQNPDPAVYQLRDSKSSDKSVCLFTDFDSQTQVSQSKDSDVYITDKCVLDMRSMDFKSNSAVAWSQKSDFACANAFQNSIIPEDTFFPSPESS
light 2: DIQMTQSPSTLSASVGDRVTITCRASQSISSWLAWYQQKPGKAPKLLIYKASTLASGVPSRFSGSGSGTEFTLTISSLQPDDFATYYCQHGYIRGDLDNVFGGGTKVEIKRTVAAPSVFIFPPSDEQLKSGTASVVCLLNNFYPREAKVQWKVDNALQSGNSQESVTEQDSKDSTYSLSSTLTLSKADYEKHKVYACEVTHQGLSSPVTKSFNRGEC
notes: also called first-generation LILRB4/CD3 bispecific antibody No. 3
B2: 43ab-4 (bispecific antibody, human IgG1, kappa, L234A L235A)
heavy 1: not shown
heavy 2: EVQLVESGGGLVQPGGSLRLSCAASGFSLSSSYWISWVRQAPGKGLEWIGSIDSGSVGITYYATWVKGRFTISRDNSKNTLYLQMNSLRAEDTAVYYCARHGDNWALDLWGQGTLVTVSSASTKGPSVFPLAPSSKSTSGGTAALGCLVKDYFPEPVTVSWNSGALTSGVHTFPAVLQSSGLYSLSSVVTVPSSSLGTQTYICNVNHKPSNTKVDKRVEPKSCDKTHTCPPCPAPEAAGGPSVFLFPPKPKDTLMISRTPEVTCVVVDVSHEDPEVKFNWYVDGVEVHNAKTKPREEQYNSTYRVVSVLTVLHQDWLNGKEYKCKVSNKALPAPIEKTISKAKGQPREPQVCTLPPSREEMTKNQVSLSCAVKGFYPSDIAVEWESNGQPENNYKTTPPVLDSDGSFFLVSKLTVDKSRWQQGNVFSCSVMHEALHNHYTQKSLSLSPG
light 1: DIVMTQSPDSLAVSLGERATINCKSSQSLLNSRTRKNYLAWYQQKPGQPPKLLIYWASTRQSGVPDRFSGSGSGTDFTLTISSLQAEDVAVYYCTQSHTLRTFGGGTKVEIKPDIQNPDPAVYQLRDSKSSDKSVCLFTDFDSQTQVSQSKDSDVYITDKCVLDMRSMDFKSNSAVAWSQKSDFACANAFQNSIIPEDTFFPSPESS
light 2: DIQMTQSPSTLSASVGDRVTITCRASQSISSWLAWYQQKPGKAPKLLIYKASTLASGVPSRFSGSGSGTEFTLTISSLQPDDFATYYCQHGYIRGDLDNVFGGGTKVEIKRTVAAPSVFIFPPSDEQLKSGTASVVCLLNNFYPREAKVQWKVDNALQSGNSQESVTEQDSKDSTYSLSSTLTLSKADYEKHKVYACEVTHQGLSSPVTKSFNRGEC
notes: also called first-generation LILRB4/CD3 bispecific antibody No. 5
B3: H7K3 variant 5, K3m1 (N/V) (antibody, V domains shown)
VH: EVQLVESGGGLVQPGGSLRLSCAASGFSLSSSYWISWVRQAPGKGLEWIGSIDSGSVGITYYATWVKGRFTISRDNSKNTLYLQMNSLRAEDTAVYYCARHGDNWALDLWGQGTLVTVSS
VL: DIQMTQSPSTLSASVGDRVTITCRASQSIVSWLAWYQQKPGKAPKLLIYKASTLASGVPSRFSGSGSGTEFTLTISSLQPDDFATYYCQHGYIRGDLDNVFGGGTKVEIK
B4: H7K3 variant 8, K3m4 (N/Q) (antibody, V domains shown)
VH: EVQLVESGGGLVQPGGSLRLSCAASGFSLSSSYWISWVRQAPGKGLEWIGSIDSGSVGITYYATWVKGRFTISRDNSKNTLYLQMNSLRAEDTAVYYCARHGDNWALDLWGQGTLVTVSS
VL: DIQMTQSPSTLSASVGDRVTITCRASQSIQSWLAWYQQKPGKAPKLLIYKASTLASGVPSRFSGSGSGTEFTLTISSLQPDDFATYYCQHGYIRGDLDNVFGGGTKVEIK
B5: H7K3 variant 12, K3m8 (S/V) (antibody, V domains shown)
VH: EVQLVESGGGLVQPGGSLRLSCAASGFSLSSSYWISWVRQAPGKGLEWIGSIDSGSVGITYYATWVKGRFTISRDNSKNTLYLQMNSLRAEDTAVYYCARHGDNWALDLWGQGTLVTVSS
VL: DIQMTQSPSTLSASVGDRVTITCRASQSINVWLAWYQQKPGKAPKLLIYKASTLASGVPSRFSGSGSGTEFTLTISSLQPDDFATYYCQHGYIRGDLDNVFGGGTKVEIK
B6: H7K3 variant 11, K3m7 (S/Q) (antibody, V domains shown)
VH: EVQLVESGGGLVQPGGSLRLSCAASGFSLSSSYWISWVRQAPGKGLEWIGSIDSGSVGITYYATWVKGRFTISRDNSKNTLYLQMNSLRAEDTAVYYCARHGDNWALDLWGQGTLVTVSS
VL: DIQMTQSPSTLSASVGDRVTITCRASQSINQWLAWYQQKPGKAPKLLIYKASTLASGVPSRFSGSGSGTEFTLTISSLQPDDFATYYCQHGYIRGDLDNVFGGGTKVEIK
B7: 4ab4ab-3 (bispecific antibody, human IgG1, kappa, L234A L235A)
heavy 1: not shown
heavy 2: EVQLVESGGGLVQPGGSLRLSCAASGFSLSSSYWISWVRQAPGKGLEWIGSIDSGSVGITYYATWVKGRFTISRDNSKNTLYLQMNSLRAEDTAVYYCARHGDNWALDLWGQGTLVTVLEDLKNVFPPEVAVFEPSEAEISHTQKATLVCLATGFYPDHVELSWWVNGKEVHSGVCTDPQPLKEQPALQDSRYALSSRLRVSATFWQNPRNHFRCQVQFYGLSENDEWTQDRAKPVTQIVSAEAWGRGGGGSGGGGSEVQLVESGGGLVQPGGSLRLSCAASGFSLSSSYWISWVRQAPGKGLEWIGSIDSGSVGITYYATWVKGRFTISRDNSKNTLYLQMNSLRAEDTAVYYCARHGDNWALDLWGQGTLVTVLEDLKNVFPPEVAVFEPSEAEISHTQKATLVCLATGFYPDHVELSWWVNGKEVHSGVCTDPQPLKEQPALQDSRYALSSRLRVSATFWQNPRNHFRCQVQFYGLSENDEWTQDRAKPVTQIVSAEAWGRASDKTHTCPPCPAPELLGGPSVFLFPPKPKDTLMISRTPEVTCVVVDVSHEDPEVKFNWYVDGVEVHNAKTKPREEQYNSTYRVVSVLTVLHQDWLNGKEYKCKVSNKALPAPIEKTISKAKGQPREPQVCTLPPSREEMTKNQVSLSCAVKGFYPSDIAVEWESNGQPENNYKTTPPVLDSDGSFFLVSKLTVDKSRWQQGNVFSCSVMHEALHNHYTQKSLSLSPG
light 1: not shown
light 2: DIQMTQSPSTLSASVGDRVTITCRASQSISSWLAWYQQKPGKAPKLLIYKASTLASGVPSRFSGSGSGTEFTLTISSLQPDDFATYYCQHGYIRGDLDNVFGGGTKVEIKPDIQNPDPAVYQLRDSKSSDKSVCLFTDFDSQTQVSQSKDSDVYITDKCVLDMRSMDFKSNSAVAWSQKSDFACANAFQNSIIPEDTFFPSPESS
notes: also called first-generation LILRB4/CD3 bispecific antibody No. 4

What was measured:
[1] = target: T1, human LILRB4 expressed on cells (human, UniProt Q8NHJ6 22-448); test: cell-based or functional assay
[2] = target: T2, recombinant human LILRB4 protein (Sino Biological, cat #16742-H08H) (human, UniProt Q8NHJ6 22-259); test: SPR (Biacore 8K), LILRB4 immobilized on CM5 chip, bispecific as analyte, 1:1 model
T2 construct: extracellular domain; also called LILRB4 recombinant protein (Sino Biological); Human LILRB4 ECD-his; not shown: his tag
Protocol: (§1) Binding affinities of first-generation bispecific antibodies to recombinant CD3e-CD3d heterodimer protein (Acro Biosystems) or LILRB4 recombinant protein (Sino Biological) were measured by surface plasmon resonance using a Biacore 8K instrument. Briefly, CD3e-CD3d or LILRB4 protein was immobilized on a CM5 chip with EDC and NHS according to standard protocols. […] The chip was regenerated using 10 mM glycine pH 1.5 as the regeneration buffer. The sensorgrams for reference channel Fc1 and buffer channel were subtracted from the test sensorgrams and the experimental data was fitted by 1:1 binding model.

[3] = target: recombinant CD3e-CD3d heterodimer protein (Acro Biosystems) (UniProt P07766 23-126; P04234 22-105); test: SPR (Biacore 8K), CD3e-CD3d immobilized on CM5 chip, bispecific as analyte, 1:1 model
Protocol: as §1

[4] = target: T3, flag-tagged cynomolgus monkey LILRB4 expressed on CHO-K1 cells (cynomolgus monkey); test: FACS, CHO-stable cells expressing cyno LILRB4
T3 construct: whole, on cells; also called cyno LILRB4

[5] = target: T1, human LILRB4 expressed on cells; test: FACS, CHO-stable cells expressing human LILRB4

Chain of recombinant CD3e-CD3d heterodimer protein (Acro Biosystems) (P07766 23-126 limits assumed, chain 1 of 2): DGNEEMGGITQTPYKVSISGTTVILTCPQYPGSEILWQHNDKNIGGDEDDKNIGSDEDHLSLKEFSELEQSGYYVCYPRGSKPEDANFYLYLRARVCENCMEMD
Chain of recombinant CD3e-CD3d heterodimer protein (Acro Biosystems) (P04234 22-105 limits assumed, chain 2 of 2): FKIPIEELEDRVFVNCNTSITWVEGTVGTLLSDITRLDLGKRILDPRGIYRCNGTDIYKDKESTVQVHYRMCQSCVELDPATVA

Binder	Monocyte (max %), Donor 1 [1] [%]	Monocyte (max %), Donor 2 [1] [%]	Monocyte (max %), Donor 3 [1] [%]	Monocyte killing EC50, Donor 2 [1] [pM]	T-cell cytotoxicity, THP-1 (max %) [1] [%]	T-cell cytotoxicity, THP-1 EC50 [1] [pM]	Kd [2] [nM]	Kd [3] [nM]	Monocyte killing EC50, Donor 1 [1] [pM]	Monocyte killing EC50, Donor 3 [1] [pM]	T-cell cytotoxicity, THP-1 EC50 (estimated) [1] [pM]	EC50 [4] [nM]	EC50 [5] [nM]
B1	39	30	0	3.4	96.4	0.43	0.23	42.1					
B2	45	0	42		98.7		0.29	47	0.19	0.084	< 0.01		
B3												1.23	0.463
B4												0.989	0.48
B5												0.933	0.402
B6												0.974	0.455
B7	55	59	54.5	0.32	98.3		0.26	26.8	1.3	2.9	< 0.01		
